Data: PMC2722380

Molecular target: His-tagged p55 fusion protein (recombinant full length human erythrocyte p55), expressed in E. coli (human) (UniProt Q00013)
Assay: SPR

His-tagged p55 fusion protein (recombinant full length human erythrocyte p55), expressed in E. coli (human), sequence (Q00013 whole entry, the tested form may be a part): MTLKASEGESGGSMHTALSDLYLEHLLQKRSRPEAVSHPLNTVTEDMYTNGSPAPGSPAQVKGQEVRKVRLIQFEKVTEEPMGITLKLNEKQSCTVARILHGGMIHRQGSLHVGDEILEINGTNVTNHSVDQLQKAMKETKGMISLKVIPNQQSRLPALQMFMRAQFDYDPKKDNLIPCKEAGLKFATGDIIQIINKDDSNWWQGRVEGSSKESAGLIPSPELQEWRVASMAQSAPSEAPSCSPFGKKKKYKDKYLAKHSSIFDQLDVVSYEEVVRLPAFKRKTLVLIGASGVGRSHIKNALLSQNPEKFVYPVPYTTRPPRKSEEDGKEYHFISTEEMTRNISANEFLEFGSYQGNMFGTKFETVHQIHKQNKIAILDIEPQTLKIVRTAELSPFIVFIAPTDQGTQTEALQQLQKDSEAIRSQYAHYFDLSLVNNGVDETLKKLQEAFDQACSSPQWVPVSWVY

MBP fusion of the exon 5-encoded peptide of protein 4.1R (domain or fragment)
Kd: 15 nM | koff: 0.0024 s⁻¹ | kon: 160000 M⁻¹ s⁻¹

MBP fusion of the exon 10-encoded peptide of protein 4.1R (domain or fragment)
Kd: 30 nM | koff: 0.0018 s⁻¹

MBP-FERMΔExon 5 fusion protein of human protein 4.1R (lacks exon 5, contains exon 10) (domain or fragment)
Kd: 132 nM | koff: 0.0029 s⁻¹ | kon: 22000 M⁻¹ s⁻¹
